Common to all, as to conditions: both partners purified
For experiment [1], the target named is T1, recombinant Ara h 2.01 (Arachis hypogaea, Ara h 2.01, UniProt Q6PSU2;PDB, strain).
T1 construct: also called rArah2.01; source: HEK cell-produced, recombinant
In words: SPR; Carterra LSA; antibody as ligand, allergen or peptide as analyte; how the antibody was held for these pairs is not told.

Experiment [2] concerns the target T2, recombinant Ara h 2.02 (Arachis hypogaea, Ara h 2.02, UniProt Q6PSU2, strain).
T2 construct: also called rArah2.02; source: recombinant
The description is as above.

For experiment [3], the target named is T3, recombinant Ara h 6 (Arachis hypogaea, UniProt Q647G9).
T3 construct: Ara h 6, Arachis hypogaea; May be the same construct as Ara h 6c; also called rAra h 6; rArah6; source: recombinant
In words: SPR; Carterra LSA; antibodies noncovalently bound to PAGHC30M (Protein A/G) sensor chips; analyte at 0.16, 0.8, 4, 20, 100 and 500 nM in HBS-TE, 0.05% BSA; 5 min association, 15 min dissociation.

The target of experiment [4] is T2, recombinant Ara h 2.02. Described as above.
Experiment [5] has as its target T4, rAra h 2 with the DPYSPS-containing loop deleted (Arachis hypogaea, Ara h 2.01 background, UniProt Q6PSU2;PDB, point mutant).
T4 construct: also called rAra h 2_loopdel; rArah2_loopdel
The description is as above.

B1: 38B7 human IgE mAb (antibody, V domains shown)
VH: QVQLVESGGGVVQPGRSLRLSCVGSGFTFRRDAKYWVRQAPGKGLEWVAAISHDGGEEDYAESVKGRFTISRDNSRETVYLEMNSLRPEDTAVYYCATTRSGWYFDYWGQGALVTVSS
VL: EIVLTQSPATLSLSPGARATLSCRASQSVDTYLAWYQQRRGQSPRLLIYDASKRATGIPARFSGSGSGTDFTLTISSLEPEDFAVYYCQQRNNWRTWTFGQGTKVEIN
notes: variable region as in the heavy chain of m5; human IgE heavy chain constant region; as the light chain of m5; In the SPR some pairs used antibody captured on a Protein A/G chip; also called IgE mAb 38B7; 38B7 IgE
Regarding B1, in experiment [1], the equilibrium dissociation constant (Kd) worked out at 30 nM, the off-rate constant (koff) stood at 0.000459 s⁻¹ and the kon came to 15500 M⁻¹ s⁻¹. Moreover, in experiment [2], the Kd amounted to 3.5 nM, the koff was found to be 0.000474 s⁻¹ and the kon amounted to 165000 M⁻¹ s⁻¹. Moreover, in experiment [3], the binding result is given as “no binding (tested: 500 nM (highest analyte concentration))”.

B2: 16A8 human IgE mAb (antibody, V domains shown)
VH: QVQLVQSGPDVRKPGATVKVSCQTSGYRFTDYEMNWVRQAPGQGLEWIGLINPHSGDTAYAQKFQGRVTMTSDTSDSTVYLELSGLTPDDTAVYYCARSQGTFEVYYFVSWGQGSLVTVSS
VL: SYVLTQPPSMSVAPGTTASIPCGANNIAKKRVHWYRQKPGQAPVVVVSDDEDRSSVIPDRFSGSKSGDTATLTISRVEAGDEGDYYCQVWDSKTDHVVFGGGTKVTVL
notes: variable region as in the heavy chain of m1; human IgE heavy chain constant region; as the light chain of m1; In the SPR some pairs used antibody captured on a Protein A/G chip; also called 16A8 antibody
Regarding B2, the Kd in experiment [1] came to 0.065 nM; in experiment [4] it was 0.036 nM; in experiment [5], 0.017 nM; in experiment [3] it was 0.036 nM. For the same molecule, the koff in experiment [1] is 5.63e-05 s⁻¹; in experiment [4] it was 3.82e-05 s⁻¹; in experiment [5], 3.69e-05 s⁻¹; in experiment [3], 8.57e-05 s⁻¹. Besides, the kon was found to be 872000 M⁻¹ s⁻¹ in experiment [1], 1.35e+06 M⁻¹ s⁻¹ in experiment [4], 2.22e+06 M⁻¹ s⁻¹ in experiment [5] and 2.39e+06 M⁻¹ s⁻¹ in experiment [3].

The values above are taken from PMC13169712, “Structural determinants of peanut-induced anaphylaxis” (The Journal of allergy and clinical immunology, 2025).
